This passage reports binding result, S/N ratio and Abs450 results from patent US20220267427A1 (SYSMEX, published 2022).

The target of assay [1] is T1, rfCK18 (239-396) (human, UniProt P05783 239-396).
T1 construct: Bought (Cloud-Clone-Corp.); captured through an anti-GST or penta HIS antibody, the tag is not described
T1 sequence: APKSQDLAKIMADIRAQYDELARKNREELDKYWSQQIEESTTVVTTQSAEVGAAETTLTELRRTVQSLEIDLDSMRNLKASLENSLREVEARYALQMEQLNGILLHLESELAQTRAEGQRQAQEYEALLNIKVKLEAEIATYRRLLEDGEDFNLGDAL
As to the kind of experiment: solid phase ELISA, antigen captured through anti-GST or penta HIS antibody. How it is done: (§1) (1) An ANTI GST antibody or a penta HIS antibody was added to an ELISA plat at 2.5 μg/mL and 50 μL/well, and the plate was allowed to stand at 4° C. overnight to immobilize the antibody. Thereafter, the plate was washed three times with PBST, and Buffer I′ (10 mM NaH₂PO₄.2H₂O, 149.7 mM NaCl, 2.5 mM EDTA 2Na, 0.10% BSA, pH 7.0) was added thereto at 200 μL/well to prepare a plate stored at 4° C. overnight. […] (3) The plate was washed three times with PBST, and 50 μL each of each antigen diluent was added thereto, followed by shaking for 45 minutes. […] (6) The plate was washed three times with PBST, and 15000-fold diluted Peroxidase-conjugated Affinipure F(ab)′2 Fragment Goat Anti-Mouse IgG (H+L) (Jackson) was added thereto at 50 μL/well, followed by shaking for 45 minutes. (7) The plate was washed three times with PBST, TMB Mix (1-step Ultra TMB-ELISA (Thermo Scientific):3% H₂O₂: Phosphate-Citrate buffer (Sigma)=15:0.15:14.85) was added thereto at 100 μL/well, and the mixture was reacted at room temperature for 10 minutes. Thereafter, 1 M H₂SO₄ was added thereto at 100 μL/well to stop the reaction. (8) Absorbance of the reaction solution at 450 nm was measured with a plate reader.

The target of assay [2] is T2, fCK18 in apoptosis-induced HepG2 cell culture supernatant (human, UniProt P05783 239-397).
T2 construct: Natural CK18 fragment from the culture supernatant of apoptosis-induced HepG2 cells (band around 18 KDa); also called fCK18 in apoptosis-inducing cells
T2 sequence: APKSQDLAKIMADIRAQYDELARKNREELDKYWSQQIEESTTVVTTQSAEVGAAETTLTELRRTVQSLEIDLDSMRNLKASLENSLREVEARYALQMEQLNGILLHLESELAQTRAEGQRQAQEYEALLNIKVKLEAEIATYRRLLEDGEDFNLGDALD
Description: plate ELISA with K18-624 magnetic microbeads, K18-328Fab-ALP detector; fCK18 0.28 ng/mL. As to the method:
(§2) Measurement samples of 3-fold dilution series (3-fold to 6561-fold dilution) were prepared from the apoptosis-induced HepG2 cell culture supernatant with a diluent (TBS, pH 7.5, 2% BSA), and fCK18 was measured. […] Based on the prepared calibration curve, fCK18 in the measurement sample was measured.
(§3) This solution was added to an ELISA plate at 25 μL/well, then each measurement sample was added at 25 μL/well, and the plate was incubated (1500 rpm, RT, 20 min). […] (3) After washing the plate, the HISCL (registered trademark) R4 reagent was added thereto at 50 μL/well, and then the mixture was stirred (1500 rpm, RT, 1 min). Thereafter, the HISCL (registered trademark) R5 reagent was added at 100 μL/well, and then the mixture was stirred (1000 rpm, RT, 10 sec). (4) Luminescence intensity was measured with a plate reader.

Assay [3] addresses T2, fCK18 in apoptosis-induced HepG2 cell …. Description: plate ELISA with K18-624 magnetic microbeads, K18-328Fab-ALP detector; fCK18 20.27 ng/mL. As to the method:
as §2, §3
A general note: In an ELISA, binding on a coated surface is turned into a signal by an enzyme label.

Assay [4] has the same target. As to the kind of experiment: plate ELISA with K18-624 magnetic microbeads, K18-328Fab-ALP detector; fCK18 182.28 ng/mL. As to the method:
as §2, §3

Assay [5] has the same target. Description: HISCL sandwich immunoassay; K18-624 magnetic microbeads capture, K18-328Fab-ALP detector; fCK18 0.09 ng/mL.
Assay [6] has the same target. Description: HISCL sandwich immunoassay; K18-624 magnetic microbeads capture, K18-328Fab-ALP detector; fCK18 0.74 ng/mL.
Assay [7] shares this target. As to the kind of experiment: HISCL sandwich immunoassay; K18-624 magnetic microbeads capture, K18-328Fab-ALP detector; fCK18 2.23 ng/mL.
Assay [8] shares this target. As to the kind of experiment: HISCL sandwich immunoassay; K18-624 magnetic microbeads capture, K18-328Fab-ALP detector; fCK18 6.79 ng/mL. As to the method:
as §2, §3

For assay [9] the target is unchanged. Description: HISCL sandwich immunoassay; K18-624 magnetic microbeads capture, K18-328Fab-ALP detector; fCK18 20.27 ng/mL.
Assay [10] shares this target. As to the kind of experiment: HISCL sandwich immunoassay; K18-624 magnetic microbeads capture, K18-328Fab-ALP detector; fCK18 182.28 ng/mL.
Assay [11] concerns the target T1, rfCK18 (239-396). As to the kind of experiment: solid phase ELISA; antigen (0.3 ug/mL) captured by anti-GST or penta HIS antibody on plate, antibody 5 to 10 ng/mL. How it is done:
as §1

B1: K18-624 antibody (antibody, V domains shown)
VH: DVQLVESGGGLVQPGGSRKLSCAASGFTFSSFGMHWVRQAPEKGLEWVAYISSGSTTIYYADTVKGRFTISRDNPKNTLFLQMTSLRSEDTAMYYCARRGMITTGAWFAYWGQGTLVTVSA
VL: DILLTQSPAILSVSPGERVSFSCRASQRIGTSIHWYQQRTNGSPRLLIKYASESISGIPSRFSGSGSGTDFTLSINSVESEDIADYYCQQSYIWPFTFGSGTKLEIK
notes: Mouse monoclonal antibody from a hybridoma (Balb/C mouse immunised with Peptide 1-KLH)
Take B1: the binding result in the assay with rfCK18 (239-396) [1] is “no binding (tested: 5 to 10 ng/mL)”. Moreover, the S/N ratio in assay [2] was found to be 5.9; in [3], 525; in [4], 5560; in assay [5] it was 1.9; in assay [6], 9.4; in assay [7] it was 25.9. Besides, the S/N ratio came out at 75.7 in assay [8], 226 in assay [9] and 2070 in [10]. Further, the Abs450 with rfCK18 (239-396) [11] was 0.017.

B2: K18-328 antibody (antibody, V domains shown)
VH: QVHLQQSAAELARPGASVKMSCKASGYTFTNYTIHWIKQRPGQGLEWIGYINPSSGYTDYNQNFKDKTTLTADKSSTTVYMQLSSLTSEDSAVYYCARQIPFAYWGQGTLVTVSA
VL: not shown
notes: Mouse monoclonal antibody from a hybridoma (immunogen full length rCK18)
Regarding B2, the Abs450 with rfCK18 (239-396) [11] is 0.525.
